{"source": "paper PMC10533329", "biological_target": "RGA5 HMA domain (rice (Oryza sativa)) (UniProt F7J0N2)", "sequence (F7J0N2 997-1066)": "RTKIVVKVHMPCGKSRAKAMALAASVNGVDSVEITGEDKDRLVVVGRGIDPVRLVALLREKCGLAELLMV", "experiment": "SPR; Biacore […]) or 50 to 0 µM ([…]; HBS-EP+ buffer; 1:1 binding model, kinetic fit", "data": [{"substance": "AVR-Pia (purified) (from UniProt B9WZW9 1-85) (natural protein)", "values": [{"measurement": "Kd", "value": 26.8, "unit": "µM"}]}]}
